Sequences and labels used below:
B1: TPP-1391 Fab fragment (Fab, V domains shown)
VH: EVQLVQSGAEVKKPGASVKVSCKASGYKFTSYVMHWVRQAPGQGLEWMGYINPYRDVTKYAEKFQGRVTLTSDTSTSTAYMELSSLRSEDTAVYYCARGSYYDYEGFVYWGQGTLVTVSS
VL: QIQMTQSPSSLSASVGDRVTITCSATSSVSYMHWYQQKPGKAPKRWIYDTSKLASGVPSRFSGSGSGTDYTLTISSLQPEDAATYYCQQWSSNPLTFGGGTKVEIKR
B2: TPP-1389 Fab fragment (Fab, V domains shown)
VH: B1 VH with S31R, R55N
VL: B1 VL with S55R
B3: TPP-1380 Fab fragment (Fab, V domains shown)
VH: B1 VH with Y94H
VL: B1 VL
B4: TPP-1388 Fab fragment (Fab, V domains shown)
VH: B1 VH with S31R, R55N
VL: B1 VL
B5: TPP-1378 Fab fragment (Fab, V domains shown)
VH: B1 VH with Y54R, R55N, Y94H
VL: B1 VL
B6: TPP-1377 Fab fragment (Fab, V domains shown)
VH: B1 VH with S31K, R55N, Y94H
VL: B1 VL
B7: TPP-1363 Fab fragment (Fab, V domains shown)
VH: B1 VH with R55K
VL: B1 VL
B8: TPP-1383 Fab fragment (Fab, V domains shown)
VH: B1 VH with R55N, Y94H
VL: B1 VL with S30K
B9: TPP-1382 Fab fragment (Fab, V domains shown)
VH: B1 VH with R55N, Y94H
VL: B1 VL with S30R
B10: TPP-1379 Fab fragment (Fab, V domains shown)
VH: B1 VH with Y54K, R55N, Y94H
VL: B1 VL
B11: TPP-1367 Fab fragment (Fab, V domains shown)
VH: B1 VH with R55N, Y94H
VL: B1 VL with S55R
B12: TPP-1387 Fab fragment (Fab, V domains shown)
VH: B1 VH with R55N
VL: B1 VL
B13: TPP-1393 Fab fragment (Fab, V domains shown)
VH: B1 VH with R55N
VL: B1 VL with S55R
B14: TPP-1360 Fab fragment (Fab, V domains shown)
VH: B1 VH with S31R, R55N, Y94H
VL: B1 VL
B15: TPP-1390 Fab fragment (Fab, V domains shown)
VH: B1 VH with Y54R, R55N
VL: B1 VL
B16: TPP-1376 Fab fragment (Fab, V domains shown)
VH: B1 VH with T30K, R55N, Y94H
VL: B1 VL
B17: TPP-1372 Fab fragment (Fab, V domains shown)
VH: B1 VH with R55K
VL: B1 VL with S55R
B18: TPP-1375 Fab fragment (Fab, V domains shown)
VH: B1 VH with T30R, R55N, Y94H
VL: B1 VL
B19: TPP-1384 Fab fragment (Fab, V domains shown)
VH: B1 VH with R55N, Y94H
VL: B1 VL with S55K
B20: TPP-1381 Fab fragment (Fab, V domains shown)
VH: B1 VH with R55K, Y94H
VL: B1 VL
B21: TPP-1392 Fab fragment (Fab, V domains shown)
VH: B1 VH with Y54R, R55N
VL: B1 VL with S55R
B22: TPP-1374, Fab fragment of BMA031 (V36) (Fab, V domains shown)
VH: B1 VH with R55N, Y94H
VL: B1 VL

Residue numbers refer to the chain shown, from its start.

One experiment concerns the target α/β TCR/CD3 complex on Jurkat, Clone E6-1 cells (human) (UniProt P07766). Put plainly: flow cytometry on Jurkat Clone E6-1 cells, Fab titration 10 µg/ml to 10 ng/ml; AUC of MFI vs log concentration, gain vs TPP-1374. (Flow cytometry measures light scatter and fluorescence of single cells or particles in a stream.)
UniProt P07766, sequence (P07766 23-207, chain 1 of 4): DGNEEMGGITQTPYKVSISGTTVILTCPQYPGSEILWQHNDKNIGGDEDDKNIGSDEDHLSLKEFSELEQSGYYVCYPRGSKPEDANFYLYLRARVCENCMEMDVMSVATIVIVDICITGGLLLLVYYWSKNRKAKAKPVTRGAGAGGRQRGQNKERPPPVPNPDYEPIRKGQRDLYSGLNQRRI
UniProt P07766, sequence (P09693 23-182, chain 2 of 4, further chain): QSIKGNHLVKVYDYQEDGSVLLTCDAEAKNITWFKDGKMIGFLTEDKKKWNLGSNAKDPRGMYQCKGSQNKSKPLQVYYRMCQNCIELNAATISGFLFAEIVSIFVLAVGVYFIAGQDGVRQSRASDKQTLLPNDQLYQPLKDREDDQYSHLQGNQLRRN
UniProt P07766, sequence (P04234 22-171, chain 3 of 4, further chain): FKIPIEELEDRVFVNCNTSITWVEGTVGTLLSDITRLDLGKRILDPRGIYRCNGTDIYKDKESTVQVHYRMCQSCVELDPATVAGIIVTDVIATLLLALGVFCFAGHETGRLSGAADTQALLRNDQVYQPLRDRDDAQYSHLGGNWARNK
UniProt P07766, sequence (P20963 22-164, chain 4 of 4, further chain): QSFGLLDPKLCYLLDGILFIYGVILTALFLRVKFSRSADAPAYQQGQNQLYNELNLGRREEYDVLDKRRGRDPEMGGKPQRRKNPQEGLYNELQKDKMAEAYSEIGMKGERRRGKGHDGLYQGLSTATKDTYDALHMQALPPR
As to B1, the % gain in binding AUC amounted to 245%.

With B2, the % gain in binding AUC turned out to be 423%.

Take B3: the % gain in binding AUC amounted to 18%.

Turning to B4, the % gain in binding AUC stood at 273%.

Consider B5, for which the % gain in binding AUC amounted to 79%.

Take B6: the % gain in binding AUC came out at 56%.

Take B7: the % gain in binding AUC was determined as 380%.

B8: the % gain in binding AUC is -73%.

On to B9, for which the % gain in binding AUC is -66%.

Turning to B10, the % gain in binding AUC was 1%.

In the case of B11, the % gain in binding AUC was determined as 220%.

B12: the % gain in binding AUC came out at 14%.

On to B13, for which the % gain in binding AUC is 226%.

With B14, the % gain in binding AUC was 144%.

For B15, the % gain in binding AUC worked out at 270%.

Consider B16, for which the % gain in binding AUC came out at 83%.

For B17, the % gain in binding AUC turned out to be 246%.

Take B18: the % gain in binding AUC stood at 87%.

For B19, the % gain in binding AUC was 203%.

Consider B20, for which the % gain in binding AUC was 98%.

Consider B21, for which the % gain in binding AUC was determined as 813%.

The next experiment shares this target. Put plainly: flow cytometry on Jurkat Clone E6-1 cells, Fab titration 10 µg/ml to 10 ng/ml; AUC of MFI vs log concentration; the reference itself, set to zero.
With B22, the % gain in binding AUC stood at 0%.

The target is the same in the next experiment. Put plainly: flow cytometry on Jurkat Clone E6-1 cells, Fab titration 10 µg/ml to 10 ng/ml; EC50 of MFI, fold decrease vs TPP-1374.
In turn, B1 gave a fold decrease in EC50 of 4.7 fold.

The molecule B2 came in with a fold decrease in EC50 of 31.8 fold.

B3: the fold decrease in EC50 was 2.9 fold.

Regarding B4, the fold decrease in EC50 was 8.1 fold.

The molecule B6 returned a fold decrease in EC50 of 4.1 fold.

The molecule B7 gave a fold decrease in EC50 of 7.3 fold.

Molecule B11 registered a fold decrease in EC50 of 8.8 fold.

With B12, the fold decrease in EC50 was 3.2 fold.

Consider B13, for which the fold decrease in EC50 came to 13.9 fold.

B14 returned a fold decrease in EC50 of 5.7 fold.

Consider B15, for which the fold decrease in EC50 was 5.5 fold.

In turn, B16 came in with a fold decrease in EC50 of 2.8 fold.

The molecule B17 displayed a fold decrease in EC50 of 21.5 fold.

B18: the fold decrease in EC50 is 2.1 fold.

Regarding B19, the fold decrease in EC50 was found to be 4.1 fold.

The molecule B20 registered a fold decrease in EC50 of 8.2 fold.

B21 came in with a fold decrease in EC50 of 16.6 fold.

These data come from US20250051445A1.
